{"source": "patent US12692310B2", "about": "“ASIC1 channel antagonist antibody” (ShanghaiTech University, priority 2019, dated 2026)", "molecules": {"B1": {"name": "ASC06-IgG1: ASC06 antibody converted into a full length IgG1 form (antibody, V domains shown)", "VH": "QVQLQQSGGGLVQPGGSLRLSCAASGFTFSSYAMSWVRQAPGKGLEWVSAISGSGGSTYYADSVKGRFTISRDNSKNTLYLQMNSLRAEDTAVYYCAKDSFYGYSKGDWGQGTLVTVSS", "VL": "QSALTQPASVSGSPGQSITISCTGTSSDVGAYNYVSWYQQQPGKAPKLMIYGVSNRPSGVSNRFSGSKSGNAASLTISGLQAEDEADYYCSSYTSSSTYVFGTGTKLTVLG"}}, "key": {"[1]": {"molecular_target": "T1, mASIC1a-eYFP (Mus musculus, UniProt Q6NXK8)", "T1 construct": "expressed in transfected cells; host or cells: CHO-K1, transient", "T1 sequence (Q6NXK8 1-526)": "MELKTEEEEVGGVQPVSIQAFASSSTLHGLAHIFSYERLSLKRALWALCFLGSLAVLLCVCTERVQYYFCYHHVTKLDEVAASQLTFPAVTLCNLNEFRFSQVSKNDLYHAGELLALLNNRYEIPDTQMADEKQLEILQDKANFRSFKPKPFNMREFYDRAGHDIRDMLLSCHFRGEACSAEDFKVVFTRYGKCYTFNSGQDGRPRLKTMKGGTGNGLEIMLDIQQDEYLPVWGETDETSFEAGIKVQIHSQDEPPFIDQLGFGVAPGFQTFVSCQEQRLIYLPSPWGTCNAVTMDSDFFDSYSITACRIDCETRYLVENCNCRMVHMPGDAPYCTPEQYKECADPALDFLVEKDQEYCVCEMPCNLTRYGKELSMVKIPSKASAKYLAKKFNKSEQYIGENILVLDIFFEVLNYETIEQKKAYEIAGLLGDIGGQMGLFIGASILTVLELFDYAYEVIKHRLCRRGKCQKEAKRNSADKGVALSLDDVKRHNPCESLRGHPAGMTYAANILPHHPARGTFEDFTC", "test": "Species/subtype selectivity, FACS binding and ICC, transfected CHO-K1 cells", "assay_type": "cell-based", "description": "(§1) Cell Membrane Colocalization Studies Using Immunocytochemistry (ICC). Cells (CHO-K1) were seeded onto the poly-D-lysine-coated glass bottom 24-well plates at a concentration of 2×10^5 cells per mL. After 12 h of cultivation, the CHO-K1 cells were transfected with ASIC plasmids by Lipofectin 3000 reagent. Twenty-four hours after transfection, the cells were fixed in 4% paraformaldehyde and incubated for 30 min in a blocking solution (5% goat serum in PBS). The resulting cells were incubated with […] ASC06-IgG1 at 4° C. overnight followed by three PBS washes for 5 min each and incubation with the Alexa555-conjugated goat anti-human secondary antibody (Life Technology). After three additional PBS washes for 5 min each, the nuclei of the cells were stained with DAPI (#10236276001; Roche). The ICC analysis was performed on a laser scanning confocal microscopy (ZEISS LSM710) with a 63×N.A. 1.4 objective at 25° C. Images were collected on a 1,024×1,024-pixel EM-CCD camera. Data acquisition and analyses were performed with the ZEN 2012 professional software.\n(§2) To test the species and subtype selectivity of ASC06-IgG1, vectors encoding human ASIC1b-eYFP fusion, rat ASIC1a-eYFP fusion, mouse ASIC1a-eYFP fusion, hASIC2a-eYFP fusion, hASIC2b-eYFP fusion, and hASIC3a-eYFP fusion were constructed. The CHO-K1 cells were transiently transfected with these plasmids. FACS binding assay and immunocytochemistry (ICC) were carried out to determine if ASC06-IgG1 is able to bind to the cell surface-expressed ASIC homologs and isotypes."}, "[2]": {"molecular_target": "T2, rASIC1a-eYFP (Rattus norvegicus, UniProt P55926)", "T2 construct": "expressed in transfected cells; host or cells: CHO-K1, transient", "T2 sequence (P55926 1-526)": "T1 sequence (Q6NXK8 1-526) with N476S", "test": "Species/subtype selectivity, FACS binding and ICC, transfected CHO-K1 cells", "assay_type": "cell-based", "description": "as §1, §2"}, "[3]": {"test_system": "primary cortical neurons from the ASIC1a KO mice (ASIC1a−/−)", "test": "ICC staining of primary cortical neurons from ASIC1a KO mice", "assay_type": "cell-based, mouse", "description": "Cell Culture. The CHO-K1 cell line (#CRL-9618; ATCC) was maintained in an F-12k media (#21127022; Gibco) containing 10% (vol/vol) FBS (#1600074; Gibco), whereas the FreeStyle 293F (#R79007; ThermoFisher Scientific) cell line was cultured in a Freestyle 293 expression media (#12338026; Thermo-Fisher Scientific). Spodoptera frugiperda 9 (Sf9) cells (#12659017; Thermo-Fisher Scientific) was cultured at 27° C. in an ESF921 media (#96-001-01; Expression Systems). Primary cortical neurons dissected from E18-d-old C57 BL/6 mice or ASIC1a^−/− mice were maintained in a Neurobasal media (#21103049; Gibco) supplemented with B27 (#17504044; Gibco) and Glutamx I (#35050061; Gibco). The CHO-K1/hASIC1a stable cell line overexpressing the full-length hASIC1a (1-528 amino acids) channel was generated as follows: The cDNA of the full-length hASIC1a with a C-terminal eYFP fusion or a C-terminal mCherry fusion was constructed, cloned into a pCDNA3.1-Neo expressing vector, and transfected into the CHO-K1 cells using Lipofectin 2000. The CHO-K1/hASIC1a stable cell line was selected by the antibiotic, geneticin (up to 1 mg/mL), and validated by the fused fluorescence proteins eYFP (λex=488 nm; λem=528 nm) or mCherry fluorescence (λex=587 nm; λem=610 nm) using flow cytometry. Over 80% positive cells survived when cultured in the presence of 200 µg/mL geneticin for 30 days. […]"}}, "note": "Positions count from the first letter of the chain named.", "data": [{"molecule": "B1", "values": [{"measurement": "FACS recognition of mouse ASIC1a", "setting": "[1]; FACS", "result": "recognized"}, {"measurement": "ICC membrane co-localization with mASIC1a-eYFP", "setting": "[1]; ICC staining", "result": "membrane co-localization"}, {"measurement": "FACS recognition of rat ASIC1a", "setting": "[2]; FACS", "result": "recognized"}, {"measurement": "ICC membrane co-localization with rASIC1a-eYFP", "setting": "[2]; ICC staining", "result": "membrane co-localization"}, {"measurement": "binding to KO neurons transfected with hASIC1a-mCherry", "setting": "[3]; transfected with hASIC1a-mCherry", "result": "binding occurs in the postsynaptic dendrites"}, {"measurement": "binding to primary neurons from the KO mice", "setting": "[3]; untransfected ASIC1a−/− neurons", "result": "no apparent binding"}]}]}
